Source: ChEMBL document CHEMBL1145505, “Bisphosphonates target multiple sites in both cis- and trans-prenyltransferases” (Proc Natl Acad Sci U S A, 2007)

Assays:
[1] = substrate: CC(C)=CCC/C(C)=C/CC/C(C)=C/COP(=O)(O)OP(=O)(O)O; assay: Activity at Saccharomyces cerevisiae GGPPS
[2] = substrate: CC(C)=CCC/C(C)=C/CC/C(C)=C/COP(=O)(O)OP(=O)(O)O; assay: Activity at human GGPPS

B1: Geranylgeranyl pyrophosphate synthase BTS1 (Saccharomyces cerevisiae S288c), Q12051 (protein)
chain: MEAKIDELINNDPVWSSQNESLISKPYNHILLKPGKNFRLNLIVQINRVMNLPKDQLAIVSQIVELLHNSSLLIDDIEDNAPLRRGQTTSHLIFGVPSTINTANYMYFRAMQLVSQLTTKEPLYHNLITIFNEELINLHRGQGLDIYWRDFLPEIIPTQEMYLNMVMNKTGGLFRLTLRLMEALSPSSHHGHSLVPFINLLGIIYQIRDDYLNLKDFQMSSEKGFAEDITEGKLSFPIVHALNFTKTKGQTEQHNEILRILLLRTSDKDIKLKLIQILEFDTNSLAYTKNFINQLVNMIKNDNENKYLPDLASHSDTATNLHDELLYIIDHLSEL
Question: Which Km [1] does the source give for B1 here?
Answer: 3.2 µM

B2: Geranylgeranyl pyrophosphate synthase (Homo sapiens), O95749 (protein)
chain: MEKTQETVQRILLEPYKYLLQLPGKQVRTKLSQAFNHWLKVPEDKLQIIIEVTEMLHNASLLIDDIEDNSKLRRGFPVAHSIYGIPSVINSANYVYFLGLEKVLTLDHPDAVKLFTRQLLELHQGQGLDIYWRDNYTCPTEEEYKAMVLQKTGGLFGLAVGLMQLFSDYKEDLKPLLNTLGLFFQIRDDYANLHSKEYSENKSFCEDLTEGKFSFPTIHAIWSRPESTQVQNILRQRTENIDIKKYCVHYLEDVGSFEYTRNTLKELEAKAYKQIDARGGNPELVALVKHLSKMFKEENE
Question: Which Km [2] does the source give for B2 here?
Answer: 0.71 µM
